The target in experiment [1] is SA-HA2 (streptavidin core fused to residues 76-130 of HA2 of A/PARIS/2590/2009 (H1N1)) (Streptomyces avidinii | influenza A virus A/PARIS/2590/2009 (H1N1)). The experiment is described as follows: SDS-PAGE of unheated samples.
Experiment [2] concerns the target SA-NP (streptavidin core fused to the nucleoprotein NP of A/PARIS/2590/2009 (H1N1)) (Streptomyces avidinii | influenza A virus A/PARIS/2590/2009 (H1N1)). The experiment is described as follows: SDS-PAGE of unheated samples.

Substance “SA-HA2 (streptavidin core fused to residues 76-130 of HA2 of A/PARIS/2590/2009 (H1N1))” registered a stoichiometry N in experiment [1] of 4. Turning to “SA-NP (streptavidin core fused to the nucleoprotein NP of A/PARIS/2590/2009 (H1N1))”, in experiment [2], the stoichiometry N came to 4.

A word on the stoichiometry N: it is a count of units in the complex or per binding partner.

For the origin of these results see publication PMC5183740.
